Columns and labels:
[1] = target: T1, HsaC (Mycobacterium tuberculosis, UniProt P9WNW7); assay type: biochemical; conditions: 20 mM HEPES, 80 mM NaCl, pH 7.0, 5% O2, 25°C; slow substrate, mechanism-based oxidative inactivation
T1 construct: full-length, recombinant in E. coli, purified anaerobically, no tag mentioned; Fe(II) enzyme; gene 903 bp; octamer

[2] = test system: Cc1ccc(O)c(O)c1CCc1ccccc1Cl; experiment: purified protein; conditions: pH 7.0; 25.0 °C
[3] = test system: Cc1ccc(O)c(O)c1CC[C@@H]1C(=O)CC[C@]2(C)C(=O)CC[C@@H]12; experiment: purified protein; conditions: pH 7.0; 25.0 °C
[4] = test system: Cc1cc(Cl)c(O)c(O)c1CCc1ccccc1Cl; experiment: purified protein; conditions: pH 7.0; 25.0 °C
[5] = test system: Oc1cccc(-c2ccccc2)c1O; experiment: purified protein; conditions: pH 7.0; 25.0 °C

T1 sequence (P9WNW7 whole entry): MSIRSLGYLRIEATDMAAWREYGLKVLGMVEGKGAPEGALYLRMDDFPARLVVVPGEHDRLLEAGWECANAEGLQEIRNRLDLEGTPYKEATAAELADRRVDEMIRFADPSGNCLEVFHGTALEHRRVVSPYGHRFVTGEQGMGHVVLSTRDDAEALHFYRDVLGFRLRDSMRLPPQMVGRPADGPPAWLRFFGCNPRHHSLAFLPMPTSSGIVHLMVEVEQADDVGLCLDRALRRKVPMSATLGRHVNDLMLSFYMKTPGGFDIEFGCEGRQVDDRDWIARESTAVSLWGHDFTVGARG

Row | Compound | Km [1] [µM] | Km [2] | kcat/Km [2] [M⁻¹ s⁻¹] | Km [3] | kcat/Km [3] [M⁻¹ s⁻¹] | Km [4] | kcat/Km [4] [M⁻¹ s⁻¹] | Km [5] | kcat/Km [5] [M⁻¹ s⁻¹]
1 | Oc1cccc(-c2c(Cl)cccc2Cl)c1O [2′,6′-diCl DHB] | 6.7 |  |  |  |  |  |  |  | 
2 | HsaC (Mycobacterium tuberculosis H37Rv) |  | 4.8 (0.6) µM | 1.4e+06 | 1.1 (0.2) µM | 1.5e+07 | 3.2 (0.3) µM | 85000 | 10 (2) µM | 160000

Source: article PMC2652662, “Studies of a Ring-Cleaving Dioxygenase Illuminate the Role of Cholesterol Metabolism in the Pathogenesis of Mycobacterium tuberculosis” (PLoS Pathogens, 2009)
